The results in this text go back to US20200024330A1.

What is called IC50 is the point on the concentration scale where inhibition reaches its midpoint.

What all share (assay): cell-based or functional assay
The target of experiment [1] is HIV-1 92RW024 envelope glycoprotein (Env) on pseudovirus (HIV-1).
Experiment [2] addresses HIV-1 IAVI-C18 envelope protein (Env) on pseudovirus (HIV-1).
The target in experiment [3] is HIV-1 Env of isolate 92UG046 (clade D) (HIV-1).
For experiment [4], the target named is HIV-1 MGRM-A-007 envelope glycoprotein (Env) (HIV-1).
The target of experiment [5] is HIV-1 Env of pseudovirus PVO.4 (Acute), clade B (HIV-1).
Experiment [6] deals with HIV-1 IAVI-C22 envelope protein (Env) on pseudovirus (HIV-1).
In experiment [7] the target is HIV-1 Env of pseudovirus 6535.3 (Acute), clade B (HIV-1).
In experiment [8] the target is HIV-1 MGRM-C-010 Env (HIV-1).
Experiment [9] addresses HIV-1 Env of isolate MGRM-G-028 (clade G pseudovirus) (HIV-1).
The target in experiment [10] is HIV-1 93UG077 envelope protein (Env) on pseudovirus (HIV-1).
The target in experiment [11] is HIV-1 MGRM-C-008 Env (HIV-1).
Experiment [12] addresses HIV-1 Env of isolate MGRM-G-011 (clade G pseudovirus) (HIV-1).
For experiment [13], the target named is HIV-1 MGRM-A-013 envelope glycoprotein (Env) (HIV-1).
Experiment [14] addresses HIV-1 MGRM-A-006 envelope glycoprotein (Env) (HIV-1).
For experiment [15], the target named is HIV-1 MGRM-F1-014 Env (pseudovirus) (HIV-1).
Experiment [16] has as its target HIV-1 92UG037 envelope glycoprotein (Env) (HIV-1).
For experiment [17], the target named is HIV-1 Env of pseudovirus NL43, clade B (HIV-1).
Experiment [18] addresses HIV-1 98IN022 envelope glycoprotein (Env) on pseudovirus (HIV-1).

1443_C16 (PG16) (TCN-116) (antibody), sequence (VH): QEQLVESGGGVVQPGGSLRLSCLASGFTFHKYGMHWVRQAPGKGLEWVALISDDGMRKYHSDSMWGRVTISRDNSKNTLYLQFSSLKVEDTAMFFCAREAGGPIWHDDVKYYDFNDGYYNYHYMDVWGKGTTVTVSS
1443_C16 (PG16) (TCN-116) (antibody), sequence (VL): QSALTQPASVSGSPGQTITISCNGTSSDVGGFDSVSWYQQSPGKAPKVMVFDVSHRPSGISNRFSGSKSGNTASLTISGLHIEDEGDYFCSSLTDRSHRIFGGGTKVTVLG

1443_C16 (PG16) (TCN-116) (antibody): the IC50 (µg/ml), pseudovirus neutralization stood at 0.08 µg/mL in experiment [1]; 1.42 µg/mL in experiment [3]; 5.91 µg/mL in experiment [4]; 5.43 µg/mL in experiment [5]; 36.9 µg/mL in experiment [7]; 3.09 µg/mL in experiment [9]. For the same substance, the IC50 (µg/ml), pseudovirus neutralization in [12] was 0.04 µg/mL; in [13] it was 0.09 µg/mL; in experiment [14] it was over 50 µg/mL; in experiment [15], 0.01 µg/mL; in [16], 0.01 µg/mL; in [17] it was 0.02 µg/mL. In experiment [18], this substance displayed an IC50 (µg/ml), pseudovirus neutralization of 0.003 µg/mL. Further, the figures for the neutralization IC50 in experiment [2], in [6] and in experiment [10] were 0.0067 µg/mL, 0.0687 µg/mL and over 50 µg/mL, respectively. Besides, the IC50 in experiment [8] and in experiment [11] was over 50 µg/mL in each case.
On to 1495_C14 (PGC14) (antibody), for which the IC50 (µg/ml), pseudovirus neutralization in [1] was over 50 µg/mL; in [3], over 50 µg/mL; in [4], over 50 µg/mL; in [5], over 50 µg/mL; in experiment [7], 35 µg/mL; in [9], over 50 µg/mL. Moreover, the IC50 (µg/ml), pseudovirus neutralization is over 50 µg/mL in [12]; over 50 µg/mL in experiment [13]; over 50 µg/mL in experiment [14]; over 50 µg/mL in experiment [15]; over 50 µg/mL in experiment [16]; 40 µg/mL in [17]. In [18], the IC50 (µg/ml), pseudovirus neutralization was 9 µg/mL. Also, the results for the neutralization IC50 in experiment [2], in [6] and in experiment [10] were over 50 µg/mL, 9.5 µg/mL and over 50 µg/mL, respectively. Further, the IC50 in experiment [8] and in [11] was over 50 µg/mL each time.
Take b12 (antibody): the IC50 (µg/ml), pseudovirus neutralization in experiment [1] is over 50 µg/mL; in [3] it was 0.07 µg/mL; in experiment [4], over 50 µg/mL; in experiment [5], over 50 µg/mL; in [7] it was 1.93 µg/mL; in experiment [9], over 50 µg/mL. Besides, the IC50 (µg/ml), pseudovirus neutralization in experiment [12] is over 50 µg/mL; in experiment [13] it was 7.04 µg/mL; in experiment [14] it was 13.6 µg/mL; in experiment [15], over 50 µg/mL; in experiment [16], over 50 µg/mL; in [17] it was 0.17 µg/mL. In addition, the IC50 (µg/ml), pseudovirus neutralization in experiment [18] was determined as 0.42 µg/mL. Further, the values for the neutralization IC50 in experiment [2], in experiment [6] and in experiment [10] were over 50 µg/mL, 3.6 µg/mL and 41.1 µg/mL, respectively. The IC50 in [8] is over 50 µg/mL; in experiment [11], 1.51 µg/mL.
